The record followed here is PMC4811492, “Dimeric peroxiredoxins are druggable targets in human Burkitt lymphoma” (Oncotarget, 2015).

Data set [1] deals with the molecule itself. In words: cross-linking; Raji or Ramos cells cultured with SK053 (10 uM, or indicated concentrations for 24 h) or SK-bio (55 uM, time course); lysates resolved under denaturing and reducing conditions, immunoblot with PRDX-specific antibodies; monomer ~22 kDa, dimer ~44 kDa.
Data set [2] concerns the molecule itself. In words: cross-linking; recombinant human PRDX1 incubated with SK-bio in vitro (Supplementary Figure S7); dimer formation less efficient than in cells.
Data set [3] deals with the molecule itself. In words: cross-linking; HEK293T cells transfected with pLenti6-PRDX1-V5 (WT or Cys-to-Ala variants), 24 h later 41 uM SK053 or DMSO for 24 h; immunoblot with anti-V5 and anti-PRDX1. On the technique in general: A western blot detects proteins with antibodies after separation by electrophoresis.

As usually defined, the stoichiometry N is the number of molecules, sites or subunits per partner or assembly.

B1: peroxiredoxin 3 (PRDX3), endogenous in Burkitt lymphoma cells (enzyme, human (endogenous in Raji and Ramos), UniProt P30048 62-256, looked up)
chain: APAVTQHAPYFKGTAVVNGEFKDLSLDDFKGKYLVLFFYPLDFTFVCPTEIVAFSDKANEFHDVNCEVVAVSVDSHFSHLAWINTPRKNGGLGHMNIALLSDLTKQISRDYGVLLEGSGLALRGLFIIDPNGVIKHLSVNDLPVGRSVEETLRLVKAFQYVETHGEVCPANWTPDSPTIKPSPAASKEYFQKVNQ
notes: peroxiredoxin 3, human, endogenous in Raji and Ramos cells; source: endogenous, Raji and Ramos cells
B1: the “stoichiometry N” value in data set [1] was determined as 2.

B2: peroxiredoxin 4 (PRDX4), endogenous in Burkitt lymphoma cells (enzyme, human (endogenous in Raji and Ramos), UniProt Q13162 38-271, looked up)
chain: WETEERPRTREEECHFYAGGQVYPGEASRVSVADHSLHLSKAKISKPAPYWEGTAVIDGEFKELKLTDYRGKYLVFFFYPLDFTFVCPTEIIAFGDRLEEFRSINTEVVACSVDSQFTHLAWINTPRRQGGLGPIRIPLLSDLTHQISKDYGVYLEDSGHTLRGLFIIDDKGILRQITLNDLPVGRSVDETLRLVQAFQYTDKHGEVCPAGWKPGSETIIPDPAGKLKYFDKLN
notes: peroxiredoxin 4, human, endogenous in Raji and Ramos cells; source: endogenous, Raji and Ramos cells
As for B2, the “stoichiometry N” value in data set [1] turned out to be 2.

B3: peroxiredoxin 2 (PRDX2), endogenous in Burkitt lymphoma cells (enzyme, human (endogenous in Raji and Ramos), UniProt P32119 1-198, looked up)
chain: MASGNARIGKPAPDFKATAVVDGAFKEVKLSDYKGKYVVLFFYPLDFTFVCPTEIIAFSNRAEDFRKLGCEVLGVSVDSQFTHLAWINTPRKEGGLGPLNIPLLADVTRRLSEDYGVLKTDEGIAYRGLFIIDGKGVLRQITVNDLPVGRSVDEALRLVQAFQYTDEHGEVCPAGWKPGSDTIKPNVDDSKEYFSKHN
notes: peroxiredoxin 2, human, endogenous in Raji and Ramos cells; source: endogenous, Raji and Ramos cells
With B3, the “stoichiometry N” value in data set [1] worked out at 2.

B4: peroxiredoxin 1 (PRDX1), endogenous in Burkitt lymphoma cells (enzyme, human (endogenous in Raji and Ramos), UniProt Q06830 1-199, looked up)
chain: MSSGNAKIGHPAPNFKATAVMPDGQFKDISLSDYKGKYVVFFFYPLDFTFVCPTEIIAFSDRAEEFKKLNCQVIGASVDSHFCHLAWVNTPKKQGGLGPMNIPLVSDPKRTIAQDYGVLKADEGISFRGLFIIDDKGILRQITVNDLPVGRSVDETLRLVQAFQFTDKHGEVCPAGWKPGSDTIKPDVQKSKEYFSKQK
notes: peroxiredoxin 1, human, endogenous in Raji and Ramos Burkitt lymphoma cells; source: endogenous, Raji and Ramos cells
On to B4, for which the “stoichiometry N” value in data set [1] is 2.

B5: recombinant human PRDX1 (enzyme, UniProt Q06830 1-199, looked up)
chain: MSSGNAKIGHPAPNFKATAVMPDGQFKDISLSDYKGKYVVFFFYPLDFTFVCPTEIIAFSDRAEEFKKLNCQVIGASVDSHFCHLAWVNTPKKQGGLGPMNIPLVSDPKRTIAQDYGVLKADEGISFRGLFIIDDKGILRQITVNDLPVGRSVDETLRLVQAFQFTDKHGEVCPAGWKPGSDTIKPDVQKSKEYFSKQK
notes: peroxiredoxin 1, human, recombinant
In the case of B5, the “stoichiometry N” value in data set [2] was found to be 2.

B6: V5-tagged human wild-type PRDX1 (enzyme, UniProt Q06830 1-199, looked up)
chain: MSSGNAKIGHPAPNFKATAVMPDGQFKDISLSDYKGKYVVFFFYPLDFTFVCPTEIIAFSDRAEEFKKLNCQVIGASVDSHFCHLAWVNTPKKQGGLGPMNIPLVSDPKRTIAQDYGVLKADEGISFRGLFIIDDKGILRQITVNDLPVGRSVDETLRLVQAFQFTDKHGEVCPAGWKPGSDTIKPDVQKSKEYFSKQK
notes: peroxiredoxin 1, human, wild type, expressed from pLenti6/V5-DEST-PRDX1; The vector pLenti6/V5-DEST usually adds the V5 tag at the C-terminus (surmised; the plasmid is printed as PRDX1-V5); also called PRDX1-V5; WT; source: HEK293T, transfected (pLenti6-PRDX1-V5), in cells
Take B6: in data set [3], the “stoichiometry N” value was determined as 2.

B7: native untagged PRDX1, endogenous in HEK293T cells (enzyme, human (endogenous in HEK293T), UniProt Q06830 1-199, looked up)
chain: MSSGNAKIGHPAPNFKATAVMPDGQFKDISLSDYKGKYVVFFFYPLDFTFVCPTEIIAFSDRAEEFKKLNCQVIGASVDSHFCHLAWVNTPKKQGGLGPMNIPLVSDPKRTIAQDYGVLKADEGISFRGLFIIDDKGILRQITVNDLPVGRSVDETLRLVQAFQFTDKHGEVCPAGWKPGSDTIKPDVQKSKEYFSKQK
notes: peroxiredoxin 1, human, endogenous untagged protein of HEK293T cells; also called native untagged form; source: endogenous, HEK293T cells
In the case of B7, the “stoichiometry N” value in data set [3] was found to be 2.

B8: V5-tagged human PRDX1 C83A (enzyme, UniProt Q06830 1-199, looked up)
chain: MSSGNAKIGHPAPNFKATAVMPDGQFKDISLSDYKGKYVVFFFYPLDFTFVCPTEIIAFSDRAEEFKKLNCQVIGASVDSHFAHLAWVNTPKKQGGLGPMNIPLVSDPKRTIAQDYGVLKADEGISFRGLFIIDDKGILRQITVNDLPVGRSVDETLRLVQAFQFTDKHGEVCPAGWKPGSDTIKPDVQKSKEYFSKQK
notes: peroxiredoxin 1, human, Cys83 (outside the active site) changed to Ala; The vector pLenti6/V5-DEST usually adds the V5 tag at the C-terminus (surmised); source: HEK293T, transfected (pLenti6-PRDX1-V5), in cells
B8: the “stoichiometry N” value in data set [3] came out at 2.
